# Measurements from the DeepSol protein solubility set.
# Test: soluble on expression in E. coli; label from the status in PepcDB or PDB records
row,Sequence,soluble on expression in E. coli
1,MTGNEHSAIETYECDVLVAGSGASGMSAAITARYRGLDVLIVEKEPRFGGTTARSGGWLWIPGTSLAKAYGIEETPEQARTYLRHEAGNNFDGARIDAFLSAGPEAVDFFTTRTALRFDMPLVFPDYHAEAPGGAQGGRSMVTRPFDGRELGEQIRTLGMPLPELTVFGMMLGSGKEIIHFMRVTKSLTSAVYVAKRLSRHLMDVLHYGRGMTLTNGNALAGRLAKSALDLKIPMWLSSPVRELTVENGAVTGAIVSREGRKVRVRARQGVVLACGGFPHDVERRKKMFPHAPTGNEHFSPGPIGNTGDGLRLAESAGGHVEDRLPNAAAWVPVSLTTRKDGSKGVMPHFIDRAKPGVIAVMRDGRRFANEGNSYHDFVQAMVKAAKPGEEIAAYLVCDHKTLRKYGLGCVPPFPMPLGHHLSTGYLMRGDTLEALAAKAGIDATAFAETVRQFNTTAPLGHDAAFGKGSKAYNRYQGDALHGPNPCVAPIENGPFYAIKMVIGDLGTYAGIITDENARALDAEGRVIPGLYAAGNDMASIMGGNYPGAGITLGPALTFGYIAGRHLADSAAKRNAALEHHHHHH,not soluble
2,MGSDKIHHHHHHMISRTIQQLEDALGQQLFYRNTRAITPTESGKLFFEYAKRITEQFDEAQKALQDKTIEPSGLVRINAPVFFGQRHIAPWLAGLSERYPRLLIELIQTDEFIDPLRESTDLIFRIGALTDSSFHARIFGTQKYHLAASPQYVAKYGTLDHPTELNQHKCLVYKGFEGPNRWLVRKPNEEWVHYPITPLLSSNNAESLMTAALHSMGIVLFPDWLIGEALKKGDLIKLLPEYEVAIKSPPQHIAAIYPNVRHPPLNIRAVIDYFAEIYGDTPYWQN,not soluble
3,MAHHHHHHMRPVTRSPLLVAAVVVAATLCLNGDNAILSLSSGVRLAHANGPITKDQCFILNPQPTVTSCNAYLPPIVDLYGSLPYDTTPDYADCVKERCLCTGAATSTAIKTSGFFCNSSGWMESGYTTCNVLVDCFSKFWRCINRALYMRYLTDRENLDSGEVDLITDLISHGSHPGEPFDITDTFRSCRLMMCAAANSRQNCGLVTCLPNYTQCDEYIRPPPLPYTHPLCTQGCRAALLMMALTIAAVSFSACCFCCCPAQVRISEPVLMEEVPAHKVELSSMRSEVEAQARRHRTNDPYTQ,not soluble
4,MGSDKIHHHHHHMKVQFLGAAQTVTGSCYMIEANGVRFAIDCGMHQGNTEIEKRNDDTEIYRPSDIAFFLVTHAHIDHTGLLPAMTRNGFTGPIYCTEPTADLLGIMLQDSAHIQEMEAEWQSRKLSRNGRIKKVEPLYTTEDATRAAEMLRPVDYGNSFEPSPGIRVTYKDAGHILGSAFLELEVTENGRPTRLVFSGDLGRPDALIVNDPQKAAPADYLFLESTYGDRDHKDPRFSRDELAEAIAYSYGNGEKVIIPAFAVERTQEVLYTLYLLHKEGRLPADMPVFVDSPLAIRATEIFRKHPKYYDDNMKKLVDSGEDPLALPNLKYTLNTQDSQALNVRSGPAVIISASGMCNAGRIKHHLRHNLWRPGASIVFVGYQGVGTPGRKIVDGNATVRLFNEDIAVKAKVFTIGSFSAHAGQSQILEWVSAFAHPQMEVFLVHGEEKAQTTLAGLLRERFNLPVSIPGYLEEVTLKPGRESLHQTDEARAHPDVDWEFLLAETEGKVAQLRKRLAGVEKRPWVEQTDIRERLVEINGELLHFLSQL,not soluble
5,MLSEASSVQSPTVSIRRRTCVVCGSSTLNSYVTSFTRVPDKQEQWVTVLANGDAGFEDQLKASLATGRKYICYDHFDRQYFAQRKTDDGFELIRNRNPMAFKNATFIRHVDLRSTSSFVPDDSSEEPIPAKRLKIMSDLKGRGGELDPNSMTFLMKTIFLHVKKTMEEADEARRKHEIKEELD,not soluble
6,MTRTNKWTEREGKADPKYFSHTGNYGESPNHIKKQGSGKGNWGKPGDEIDDLIDNGEIPPVFKKDRRGSNLQSHEQKFENVQKE,not soluble
7,MSSFTHFNEQGRAKMVDITHKEDTVRVAVAQTSVTVSREIYEKMTSNAIEKGDVLAVAQVAGVMAAKKTADLIPMCHPLMLKGVDIAFAWENDGEAHKLVITATVKTKGSTGVEMEALTAASVCALTVYDMCKALDKGMVIGPTYLVEKTGGKSGHYRRKTD,soluble
8,GKITFFEDRSFQGRCYECSSDCPNLQTYFSRCNSVRVDSGCWMLYERPNYQGHQYFLRRGEYPDYQQWMGFSDSIRSCRLIPHAGSHRMRLYEKEDHKGVMMELSEDCSCIQDRFHLSEVRSLQVLEGCWVLYEMPNYRGRQYLLRPQEYRRFQDWGSVDAKAGSLRRVVDLY,soluble
9,MAKAGGITNAVNVGIAVQADWENREFISHISLNVRRLFEFLVQFGKPHSLTYFSVLGFEFN,not soluble
10,MGSDKIHHHHHHADIETCTVPGDVLNRDPIIGNDQITLPLKKGTNISKLAPEFTLTPGATINPESGVVRDFSTPQKYVVTSEDGKWKKEYEVTALFSGIPTSYHFENALPVKDKKGNILYYNFQESDAIGNILNWANANEGFNYTGVQAKPEEYPTSPAPDGVQGNCVKLTTKDTGSLGALLKMYIAAGNLFMGSFTLDIGNVLRATKFGVPFTHIPTSFKGYYKYKAGEVFTVKGEPVSGRKDICDIYAVFYETDDKVKSLDGTNVFTSPNLISIARISNAKETEQWTEFNLPFITLPGKTVDSQKLEDGKYNVAIVFSSSIKGDLFEGAAGSTLYIDEVELSYRDIK,not soluble
11,MSLKTYALVMAGGRGERLWPLSREDRPKPFLPLFEGKTLLEATLERLAPLVPPERTLLAVRRDQEAVARPYADGIRLLLEPLGRDTAGAVLLGVAEALKEGAERLLVLPADHYVGDDEAYREALATMLEAAEEGFVVALGLRPTRPETEYGYIRLGPREGAWYRGEGFVEKPSYAEALEYIRKGYVWNGGVFAFAPATMAELFRRHLPSHHEALERLLAGASLEEVYAGLPKISIDYGVMEKAERVRVVLGRFPWDDVGNWRALERVFSQDPHENVVLGEGRHVALDTFGCVVYADRGVVATLGVSGLVVAKVGDEVLVVPKDWAREVREVVKRLEAQEEGHHHHHH,soluble
12,MGSDKIHHHHHHPWRLLTPDQRYQKRQSQLKSTMSDFFTWCESVHALPQSKFGRAIDYALSQREAMENVLLDGRLELSNNRVERAVKELVIGRKNWLFSTSFKGARSSGIILSVMRSAEANGLDCRKYLEYLFTELPNLSVPGDSKALQDYLPWSSQVRAICAR,not soluble
13,MGSDKIHHHHHHMASVYWIPKLRIIPRTKFVTICPITLTLSLSMQYSPNLAHGTLLRRYKRFLADVLLDDGTEITLHCPNTGSMKNCLFPGETVWFSTSNNPKRKYAHTWEQSSTPDKQLIGINTGRANALAEEAINLGVIKELTGYDRLQREVKYGEENSRIDILLSSDTRASCYIEVKSCTLLEEGSTSGRGYFPDSVTVRGQKHLRELIHMVKQGHRAVLLFVVQHSGINSVSPARHIDVAYSELFTQALDAGVEVLAYQTQMSPQESQILTSCPVIT,not soluble
14,MGSDKIHHHHHHMTSSLQKLFTFDEFLDFLVTQPENIRYELHDGNIIQMPPPLGQHEQIVAFLTMILGYECLRLKLNYGIPKNATVKPENRTSGYYPDVLLINFSNLINEALWEKQSILSHPDSIPLVIEVVSTNWRDDYHKKLADYEEMGIQEYWIVDYAALGSKELIGDPKQPTITIYSLSDEGEYRGKQFRGDDRIESPTFSNLNLKVEQIFHCVIE,not soluble
15,MGSDKIHHHHHHMPKNWTLKVDQYINANSNCIIATAHVDSFPTDLPLEPNIREPNLKSSTYKQIFDSLTTEPEKFFQRNNGIVLCVNKVKPKNRTELELEILQANEGGNDGVINGGHSVSAFEQARKFKYDLTLARVKVTIHIGLSEDEAKDIALASNTSAPVDARSKVNARGDYQFIKQFLAQLEREEDTKFRIAYYQNQSGAPKSPQCNVNHLIKLMNCLDRNKYNPNTNKSKGKHPPVSNNPSLTDAERERLSRLLPLLPKALWIEQRFFKTIEAYITNPKKKGVDLASIDARKNTLLPDSRYSFGFSAPADIAMPIVAAYRVFLDENYNWLIPFDDFAEDFLQHLWNNYYRKYLVSEKFSGNTVGSKICRNPVIWDSLYVSAQSYLNQQLLKMVSSSKNKREELKLAN,not soluble
16,MKVLEERNAFLSDYEVLKFLTDLEKKHLWDQKSLAALKKSRSKGKQNRPYNHPELQGITRNVVNYLSINKNFINQEDEGEERESSGAKDAEKSGISKMSDESFAELMTKLNSFKLFKAEKLQIVNQLPANMVHLYSIVEECDARFDEKTIEEMLEIISAYA,soluble
17,MQDNSRYTHFLTQHYDAKPQGRDDRYCESIMRRRGLTSDRCKPINTFIHGNKRSIKAICENKNGNPHRENLRISKSSFQVTTCKLHGGSPWPPCQYRATAGFRNVVVACENGLPVHLDQSIFRRP,soluble
18,MGSDKIHHHHHHMQSIPHVDMRRYQNDFDAFTQDVGNGYEKYGFIALTQHGVDTALIERALDTCRELFALPEDVKKQYHRPGQGGARGYTPFGTEVAKDAKHVDLKEFWHVGREVEGEPAYPQLLPNVWPQELPKFKDDMLAIYAALDNLGNQVLEALSVYLGQPKDFFRNKVNNGNSILRPLHYPPIIDEDTPSVRAGAHEDINVLTLLVGSREPGLEVLAKDGTWVPVTIIEGAIICNVGDMLQRLTNHVLPSTTHRVVNPPAPFNEKSRYSIPFFLHFNPDVMITPLESCISDENPQRDEPITADDYLMQRLREIGLIKD,not soluble
19,MQIVTDKNKVALYYKDIAVTYKEFILNTKKIKQFTKIKEFTNNMIYMENRPELLYSFFAIWDSRATCVCIDASSTAVELTYYIDNSDVVKIFTTKMQVEKVKGALSILSKQIEIIVVDEINLSEIKIDENSSENLVINSPEKEDTALILYTSGTTGKPKGVMLTFDLEHHHHHH,not soluble
20,MITTRLHGRLGNQMFQYAAARGLAARLGTQVALDTRLAESRGEGVLTRVFDLDLAQPDQLPPLKGDGLLRHGAWRLLGLAPRFRREHGLGYNAAIETWDDGTYLHGYWQSERYFAHIAARIRADFAFPAFSNSQNAEMAARIGDTDAISLHVRRGDYVALAAHTLCDQRYYAAALTRLLEGVAGDPVVYLFSDDPAWARDNLALPVQKVVVDFNGPETDFEDMRLMSLCRHNIIGNSSFSWWAAWLNAHPGKRIAAPASWFGDAKLHNPDLLPPDWLKIEVLEHHHHHH,not soluble
21,MWRKLTIIVVLLCLAGYAAYEQFGKSDQAAQGEQEKSEAAMKEMIASNGIEIGKSAPDFELTKLDGTNIKLSDLKGKKVILNFWATWCGPCQQEMPDMEAFYKKHKDNVEILAINYTPSEKGGGVEKVSNFAKEKGITFPILLDKNIDVTTAYKVITIPTSYFIDTKGVIQDKFIGPMTQKEMEKRIAKLK,not soluble
22,MAHHHHHHMGVKFIVEHMDDLEEWCILEYMHICEIVKDENIIFTKFKGNFKDISKSHEPKCYEKSIGDLKDEFGWNKICLLDMKAKDVLTCKDKNEIDFLLFGGILGNVPSNDRTSELRKFEFPISRNLGSVQMTTNTAVLVCHIILNDQVELENIPFVDNPDIVLKNNKESMMLPFRFVSKYYYTKCESDKNVPILPKNFKDYLIKLGDQQYNDLDSFF,soluble
23,SSVLLRPILPEDEPKHASFISQVSHDDLYKRFFSEVGEFNHEALANFTQIDYDREMAFVATKQIDGEEIIIAVVRALSDPNHTNTEFAVLVRSDLKGLGLGKILMEKIIRYCQSIGIKVMTGMTMPANHGMIGLAQHLGFSVDIQMSDGVVDMFLEL,not soluble
24,MGSDKIHHHHHHMNFKDCIDSYPFILMEGALGERLKREFDLDISGTVAMADLVYQQKGRLALETLWNEYIDIAYRYQLPFLATTPTRRANKERIYMAGYNESIIADNVDFLRSIKEAANVDMYIGGLMGCKGDAYTGEEALNLEEAIDFHSWQAGLFKSAKVDFLYAGIMPVLTEAIGMAVAMSDTDIPYIISFTIQRDGKLIDGHTIDDAIHCIDNHVSNKPVCYMTNCVHPDIVYEALSHKFNQTQTVKSRFWGIQANTSQLSYKELDGANHLHTSSAADLSEAILKLKSDCHLKIFGGCCGTDSSHMEKIAKISEVT,not soluble
